Laboratory results published in the supplement of paper PMC10567573.
± gives the standard deviation.

Assay: protein stability index of a GFP-peptide fusion (GPS, HEK-293T) (PSI 1-6); higher = more stable
Conditions: c terminus: a fixed tail appended
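Note: 24-mer peptide tiles fused after GFP, lentivirally expressed, FACS-sorted into six equal bins by GFP/DsRed ratio, decoded by Illumina sequencing, PSI is the read-weighted mean bin number.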

## TPVSYRMAKTLVFSKVKTSLGLDH [ACSBG2]
treatment: DMSO
  protein stability index: 2.33 ± 0.33
treatment: MLN4924 1 uM, 8 h
  protein stability index: 2.41 ± 0.18

## DRDSIWKCLKFLGSRHPTLVLPLV [INTS4]
treatment: DMSO
  protein stability index: 2.15 ± 0.24
treatment: MLN4924 1 uM, 8 h
  protein stability index: 2.15 ± 0.22

## ILKHTPKEHPDVQLLEDAILIIQG [NET1]
treatment: DMSO
  protein stability index: 2.12 ± 0.27
treatment: MLN4924 1 uM, 8 h
  protein stability index: 1.99 ± 0.35

## HSYCRMFLQRGADTNLGRLEDGQT [ASB7]
treatment: DMSO
  protein stability index: 2.73 ± 0.44
treatment: MLN4924 1 uM, 8 h
  protein stability index: 2.85 ± 0.48

## SEGACEKEKQSRDFQGRILSVDPE [RHOBTB1]
treatment: DMSO
  protein stability index: 5.22 ± 0.42
treatment: MLN4924 1 uM, 8 h
  protein stability index: 5.12 ± 0.35

## VLNPHPSLGYKEIRKGESRSEALA [CHGA]
treatment: DMSO
  protein stability index: 4.14 ± 0.19
treatment: MLN4924 1 uM, 8 h
  protein stability index: 4.5 ± 0.3

## ASRVSKVNDKRRKKSGEKEQHISK [KMT2E]
treatment: DMSO
  protein stability index: 4.69 ± 0.39
treatment: MLN4924 1 uM, 8 h
  protein stability index: 4.45 ± 0.38

## SPVLLGWVEQAYADKCVCGPSAPP [TIAF1]
treatment: DMSO
  protein stability index: 2.67 ± 0.057
treatment: MLN4924 1 uM, 8 h
  protein stability index: 2.86 ± 0.28

## GLGYFSCHSHTVVQDYSYFFFLRM [CCDC3]
treatment: DMSO
  protein stability index: 2.66 ± 0.71
treatment: MLN4924 1 uM, 8 h
  protein stability index: 2.3 ± 0.55

## WIQVTSLRIFVWLLLLYFMQVIAI [PHTF1]
treatment: DMSO
  protein stability index: 3.08 ± 0.43
treatment: MLN4924 1 uM, 8 h
  protein stability index: 2.93 ± 0.42

## HGLQEGKDLFTQRQNSAPARMLSS [CDC25A]
treatment: DMSO
  protein stability index: 4.4 ± 0.18
treatment: MLN4924 1 uM, 8 h
  protein stability index: 4.46 ± 0.15

## DEIENLLDSDHRELIGDYSKAFLL [CDC25B]
treatment: DMSO
  protein stability index: 3.55 ± 0.36
treatment: MLN4924 1 uM, 8 h
  protein stability index: 3.41 ± 0.53

## KADTLKERYQKIGDTKRATPIEVL [CSNK1G3]
treatment: DMSO
  protein stability index: 3.88 ± 0.18
treatment: MLN4924 1 uM, 8 h
  protein stability index: 4.01 ± 0.32

## GIKGLVRDSHGKGIPNAIISVEGI [CPXM2]
treatment: DMSO
  protein stability index: 2.8 ± 0.067

## EEEEAAMYEEEMEREEITTKKRKL [FAM50A]
treatment: DMSO
  protein stability index: 5.66 ± 0.32
treatment: MLN4924 1 uM, 8 h
  protein stability index: 5.38 ± 0.34

## RLQSSFWIVDKQHVYIGSAGLDWQ [PLD5]
treatment: DMSO
  protein stability index: 2.69 ± 0.46
treatment: MLN4924 1 uM, 8 h
  protein stability index: 2.26 ± 0.38

## GHLCAAEVVKIRDSFSNQNTETKD [DLC1]
treatment: DMSO
  protein stability index: 4.18 ± 0.063
treatment: MLN4924 1 uM, 8 h
  protein stability index: 4.14 ± 0.22

## TLPVSGNLLDVYSSQGVATPAITV [TFE3]
treatment: DMSO
  protein stability index: 2.58 ± 0.24
treatment: MLN4924 1 uM, 8 h
  protein stability index: 2.73 ± 0.27

## HSPSCLARVTGELTMTFPAGIVRV [FCHO1]
treatment: DMSO
  protein stability index: 2.53 ± 0.44
treatment: MLN4924 1 uM, 8 h
  protein stability index: 2.67 ± 0.76

## ETGKLLWKVRYDTFIVSCKFSPDG [WDR88]
treatment: DMSO
  protein stability index: 2.55 ± 0.37
treatment: MLN4924 1 uM, 8 h
  protein stability index: 2.04 ± 0.26

## LSFSDALLSIIATVMILPVTHTEI [TMEM175]
treatment: DMSO
  protein stability index: 3.15 ± 0.29
treatment: MLN4924 1 uM, 8 h
  protein stability index: 2.88 ± 0.58

## GDWAPPPEGGMEQALAGASSGREL [ZNF263]
treatment: DMSO
  protein stability index: 5.35 ± 0.36
treatment: MLN4924 1 uM, 8 h
  protein stability index: 5.37 ± 0.16

## REESQHEIKDVLVWTNDQVVHWVQ [PPFIA4]
treatment: DMSO
  protein stability index: 3.4 ± 0.37
treatment: MLN4924 1 uM, 8 h
  protein stability index: 3.97 ± 0.45

## SLHCLLDQFDKDLPVYLKKDPAYF [DENND6A]
treatment: DMSO
  protein stability index: 2.13 ± 0.41
treatment: MLN4924 1 uM, 8 h
  protein stability index: 2.23 ± 0.23

## SLRDSGYFYDPIERDIEIGFLPWL [RSPH3]
treatment: DMSO
  protein stability index: 2.28 ± 0.49
treatment: MLN4924 1 uM, 8 h
  protein stability index: 2.37 ± 0.47

## ALVRLRETEEMLGKKQEYLENRIQ [CHMP4C]
treatment: DMSO
  protein stability index: 3.02 ± 0.46
treatment: MLN4924 1 uM, 8 h
  protein stability index: 3.35 ± 0.2

## TTNVKSASRQKTSLGIELHCNVSN [ZNF396]
treatment: DMSO
  protein stability index: 3.39 ± 0.29
treatment: MLN4924 1 uM, 8 h
  protein stability index: 3.82 ± 0.31

## PPPKTNLTPGQSDSAKREVKQKIS [FAN1]
treatment: DMSO
  protein stability index: 5.44 ± 0.24
treatment: MLN4924 1 uM, 8 h
  protein stability index: 5.35 ± 0.094

## MDADEGQDMSQVSGKESPPVSDTP [IKZF1]
treatment: DMSO
  protein stability index: 5.35 ± 0.28
treatment: MLN4924 1 uM, 8 h
  protein stability index: 5.28 ± 0.6

## SLKEELMCLKKNHEEEVSVLRCQL [KRT36]
treatment: DMSO
  protein stability index: 3.09 ± 0.31
treatment: MLN4924 1 uM, 8 h
  protein stability index: 3.23 ± 0.4

## NKLTTLPSDFCGLTHLVKLDLSKN [LRRC59]
treatment: DMSO
  protein stability index: 2.37 ± 0.12
treatment: MLN4924 1 uM, 8 h
  protein stability index: 2.31 ± 0.14

## ESRYTSDYFISYGIEHAQCVPPSE [ETS1]
treatment: DMSO
  protein stability index: 3.22 ± 0.29
treatment: MLN4924 1 uM, 8 h
  protein stability index: 3.5 ± 0.53

## TIIPILQHLKYKEHPEALSCLLLQ [INTS3]
treatment: DMSO
  protein stability index: 2.35 ± 0.15
treatment: MLN4924 1 uM, 8 h
  protein stability index: 2.25 ± 0.14

## EDGIHTLTCALMLLNTDLHGHNIG [PSD2]
treatment: DMSO
  protein stability index: 2.78 ± 0.5
treatment: MLN4924 1 uM, 8 h
  protein stability index: 2.75 ± 0.36

## YPEEADGTLDCISMALTCTFNRWG [RBBP5]
treatment: DMSO
  protein stability index: 2.19 ± 0.23
treatment: MLN4924 1 uM, 8 h
  protein stability index: 2.11 ± 0.28

## EYLSFFDFSGLTLDGALRTFLKAF [PSD2]
treatment: DMSO
  protein stability index: 2.44 ± 0.31
treatment: MLN4924 1 uM, 8 h
  protein stability index: 2.01 ± 0.34

## LERLAYLHARLRELLCELGRPSMV [PRAME]
treatment: DMSO
  protein stability index: 2.42 ± 0.16
treatment: MLN4924 1 uM, 8 h
  protein stability index: 2.3 ± 0.33

## SEAKLYGRCELARVLHDFGLDGYR [SPACA3]
treatment: DMSO
  protein stability index: 2.23 ± 0.15
treatment: MLN4924 1 uM, 8 h
  protein stability index: 2.42 ± 0.13

## LSLHVKSLGASPTVAGIVGSSYGI [MFSD9]
treatment: DMSO
  protein stability index: 2.71 ± 0.93
treatment: MLN4924 1 uM, 8 h
  protein stability index: 2.42 ± 0.38

## SPGIGAVYLANQAKNQSDEAKEAK [RTP4]
treatment: DMSO
  protein stability index: 5.28 ± 0.22
treatment: MLN4924 1 uM, 8 h
  protein stability index: 5.28 ± 0.12

## AYEFNPELVLVSAGFDAARGDPLG [HDAC6]
treatment: DMSO
  protein stability index: 3.11 ± 0.58
treatment: MLN4924 1 uM, 8 h
  protein stability index: 3.58 ± 0.23

## SDSGSDKSLEGGGTAFDAETDSEM [SMG5]
treatment: DMSO
  protein stability index: 5.54 ± 0.15
treatment: MLN4924 1 uM, 8 h
  protein stability index: 5.62 ± 0.19

## GSALTFREEQCAAYNHRTDLFKSF [ADAMTS4]
treatment: DMSO
  protein stability index: 2.97 ± 0.17
treatment: MLN4924 1 uM, 8 h
  protein stability index: 2.88 ± 0.22

## PPGSHLLYAKMIQKLADLRSLNEE [VDR]
treatment: DMSO
  protein stability index: 2.61 ± 0.11
treatment: MLN4924 1 uM, 8 h
  protein stability index: 2.67 ± 0.25

## AVSESYSAPGACEEPTERGNLEVG [FBXO34]
treatment: DMSO
  protein stability index: 5.49 ± 0.12
treatment: MLN4924 1 uM, 8 h
  protein stability index: 5.57 ± 0.26
